T1: monkey CDH6 protein (cynoCDH6 ECD-his) (monkey (cyno), UniProt A0A2K5TW62 19-615)
T1 construct: range 19-615; also called Cyno CDH6-his; not shown: his tag
T1 sequence: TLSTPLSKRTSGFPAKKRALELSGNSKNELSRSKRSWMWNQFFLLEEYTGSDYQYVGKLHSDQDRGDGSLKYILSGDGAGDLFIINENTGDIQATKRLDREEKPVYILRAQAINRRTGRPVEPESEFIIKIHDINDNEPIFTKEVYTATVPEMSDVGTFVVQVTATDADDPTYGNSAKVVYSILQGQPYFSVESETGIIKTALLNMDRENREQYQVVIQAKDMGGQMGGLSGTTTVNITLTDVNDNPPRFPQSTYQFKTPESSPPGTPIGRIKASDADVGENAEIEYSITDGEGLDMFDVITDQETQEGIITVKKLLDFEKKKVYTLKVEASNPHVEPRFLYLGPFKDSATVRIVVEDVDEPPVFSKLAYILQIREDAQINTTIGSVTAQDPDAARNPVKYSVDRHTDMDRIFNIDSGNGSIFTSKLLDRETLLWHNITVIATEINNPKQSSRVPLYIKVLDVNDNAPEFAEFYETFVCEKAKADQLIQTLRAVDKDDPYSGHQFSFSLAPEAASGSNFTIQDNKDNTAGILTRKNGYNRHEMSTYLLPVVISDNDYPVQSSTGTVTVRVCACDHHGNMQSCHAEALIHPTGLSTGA

T2: human CDH6 on tumor cells (OVCAR3 cells, PA-1 cells) (human, UniProt P55285 54-790)
T2 sequence: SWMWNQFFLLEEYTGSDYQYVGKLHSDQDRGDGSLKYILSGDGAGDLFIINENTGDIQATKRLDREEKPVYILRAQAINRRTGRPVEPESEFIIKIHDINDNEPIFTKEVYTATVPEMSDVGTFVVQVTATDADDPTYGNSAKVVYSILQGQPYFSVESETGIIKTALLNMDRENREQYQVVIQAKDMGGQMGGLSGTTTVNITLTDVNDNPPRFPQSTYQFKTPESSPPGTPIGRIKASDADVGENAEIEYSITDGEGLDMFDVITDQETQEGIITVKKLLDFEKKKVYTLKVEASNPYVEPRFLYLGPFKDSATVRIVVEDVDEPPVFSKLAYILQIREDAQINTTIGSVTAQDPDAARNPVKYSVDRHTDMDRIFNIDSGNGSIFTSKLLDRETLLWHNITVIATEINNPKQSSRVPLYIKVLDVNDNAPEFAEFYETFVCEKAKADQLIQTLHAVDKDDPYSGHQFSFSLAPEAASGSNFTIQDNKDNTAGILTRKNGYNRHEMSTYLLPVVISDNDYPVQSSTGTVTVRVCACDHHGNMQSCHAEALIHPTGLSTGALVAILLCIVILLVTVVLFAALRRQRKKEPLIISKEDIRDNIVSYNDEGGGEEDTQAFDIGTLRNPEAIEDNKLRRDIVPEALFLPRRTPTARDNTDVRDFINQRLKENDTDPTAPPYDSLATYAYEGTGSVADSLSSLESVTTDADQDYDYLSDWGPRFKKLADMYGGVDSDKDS


Columns and labels:
[1] = biological target: T1, monkey CDH6 protein (cynoCDH6 ECD-his); assay: ELISA, coated antigen
Method: Human CDH6 protein (hCDH6 ECD-his, conventionally synthesized), monkey CDH6 protein (cynoCDH6 ECD-his, conventionally synthesized; the cynoCDH6 ECD sequence was derived from Uniprot #A0A2K5TW62 (19-615)), and murine CDH6 protein (mCDH6 ECD-his, conventionally synthesized; the mCDH6 ECD sequence was derived from Uniprot #P97326 (19-615)) were diluted with PBS to a final concentration of 1 μg/mL, and added to a 96-well ELISA plate at 100 μL/well. The plate was incubated at 4° C. overnight. The next day, the plate was washed 3 times with a plate washing solution (PBS+0.01% (v/v) Tween 20), and a blocking buffer (PBS+0.01% (v/v) Tween 20+2% (w/w) BSA) was added for blocking at room temperature for 2 h. The blocking buffer was discarded, and the plate was washed 3 times. The chimeric antibodies were diluted with 1% BSA+PBS (purchased from Cytiva, Cat. No. SH30264.01) and added to the 96-well plate at 50 μL/well. After incubation at 37° C. for 2 h, the plate was washed 3 times with a plate washing solution. […] The plate was incubated at 37° C. for 1 h and then washed 5 times with a plate washing solution. A TMB substrate (purchased from Seracare, Cat. No. 5120-0077) was added at 50 μL/well and incubated at room temperature for 10 min, then a stop solution (1.0 N HCl) was added at 50 μL/well. OD450 nm values were read using a microplate reader (Biotek). Analysis was performed by the GraphPad Prism software, data were fitted, and EC50 values were calculated. The chimeric antibodies tested all had strong binding to the human CDH6 protein, the monkey CDH6 protein, and the murine CDH6 protein.

[2] = biological target: T2, human CDH6 on tumor cells (OVCAR3 …); assay: FACS, OVCAR3 cells, 4° C. arm of endocytosis assay, antibody diluted to 10 µg/mL
Method: OVCAR3 cells were cultured until a confluence of 90% was reached, the medium was removed by pipetting, the cells were washed once with PBS, and then treated with an enzyme-free cell dissociation solution (Versene, purchased from Gibco, Cat. No. 15040-066) and the cells were collected. The cells were washed once with PBS, counted, resuspended to 2×10⁶ cells/mL in an FACS buffer (PBS+2% FBS), and then added to two 96-well plates at 50 μL/well. The chimeric antibodies were diluted with FACS buffer (PBS+2% FBS) to 10 μg/mL and separately added to the two 96-well plates at 50 μL/well, and the plates were incubated at 4° C. for 1 h. After the cells were washed 3 times with PBS, the cells were resuspended in an FACS buffer. One 96-well plate was incubated at 4° C. for 1 h, and the other 96-well plate was incubated at 37° C. for 1 h. […] After the plates were centrifuged and washed 2 times with PBS, the cells were resuspended in an FACS buffer. The mean fluorescence intensity (MFI) was measured using FACS Canton II (BD). The chimeric antibodies tested all had good endocytic activity.

Row | EC50 [1] | Max OD450 [1] | MFI_4° C. [2] | Binder
1 | 0.044 nM | 2.45 OD450 | 5740 MFI | CHI-CDH6-12 (antibody, human IgG1, kappa, V domains shown, also called CH1-CDH6-12; chimeric antibody of murine CDH6-12) VH: EVNLVESGGGLVQPGDSLTLSCSASGFTFTDYYMSWVRQFPGKALEWLALIRNKANSYTTEYSASVKGRFTISRDNSQSILYLQMNALRAEDSATYYCARDSYYSHDGFAYWGQGTLVTVSA VL: DIVLTQSPASLAVSLGQRATISCRASKSVSTSSYTYMHWYQQKPGQPPKLLIKFASYLESGVPARFSGSGSGTDFTLNIHPVEEEDAATYYCQHSREFPFTFGTGTKLEIKR
2 | 0.017 nM | 2.72 OD450 | 5970 MFI | CHI-CDH6-13 (antibody, human IgG1, kappa, V domains shown, also called chimeric antibody of murine CDH6-13) VH: DVQLQESGPGLVKPSQSLSLTCSVTGYSITKDSYWNWIRQFPGSKLEWMGFISYDGSRHYNPSLKNRISITRDTSKNQFFLQLNSVTTEDTATYYCARRDYADYWGQGTTLTVSS VL: QIVLTQSPALMSAFPGEKVTMTCSATSSVSYIYWYQQKPRSSPKPWIYLTSNLASGVPARFSGSGSGTSYSLTINSLEAEDAATYYCQQWSSIPYTFGGGTKLEIKR
3 | 0.039 nM | 2.55 OD450 | 9230 MFI | CHI-CDH6-14 (antibody, human IgG1, kappa, V domains shown, also called CHI-hCDH6-14; CH1-CDH6-14) VH: QIQLQQSGPELVKPGTSVKISCKASGYTFTDNYINWVRQRPGQGLEWIGWIYPGTGNSYYNEKFKGKATLTVDTSSSTAYMQFSSLTSEDSAVYLCASSYGDSFDYWGQGTTLTVSS VL: DIQMTQTTSSLSASLGNRVTISCRASQDIRNYLNWYQQKPDGTFKLLISYTSRLHSGVPSRFSGSGSGTDYSLTVSNLEPEDIATYYCQQYSQLPWTFGGGSRLEIKR
4 | 0.103 nM | 2.18 OD450 | 3830 MFI | DS-H01L02 (antibody, human IgG1, kappa, V domains shown, Positive control, variable regions from WO2018212136A1; also called positive control anti-human CDH6 antibody) VH: EVQLVQSGAEVKKPGASVKVSCKASGYTFTRNFMHWVRQAPGQGLEWMGWIYPGDGETEYAQKFQGRVTITADTSTSTAYMELSSLRSEDTAVYYCARGVYGGFAGGYFDFWGQGTLVTVSS VL: DIQMTQSPSSLSASVGDRVTITCKASQNIYKNLAWYQQKPGKAPKLLIYDANTLQTGVPSRFSGSGSGSDFTLTISSLQPEDFATYFCQQYYSGWAFGQGTKVEIKR
5 | 0.039 nM | 2.44 OD450 | 6520 MFI | NOV0712 (antibody, human IgG1, kappa, V domains shown, Positive control, variable regions from WO2018212136A1; also called positive control anti-human CDH6 antibody) VH: QVQLLESGGGLVQPGGSLRLSCAASGFTFSSHGMHWVRQAPGKGLEWVSVISGSGSNTGYADSVKGRFTISRDNSKNTLYLQMNSLRAEDTAVYYCARQWGSYAFDSWGQGTLVTVSS VL: DIQMTQSPSSLSASVGDRVTITCRASQSISSYLNWYQQKPGKAPKLLIYAVSTLQSGVPSRFSGSGSGTDFTLTISSLQPEDFATYYCQQSGTFPPTTFGQGTKVEIKR

From patent US20260234242A1 (HAINAN SIMCERE ZAIMING PHARMACEUTICAL, published 2026)
